Here are results for six substances from US20230002480A1.

Bounds are passed on as bounds.

Holding throughout (assay): cell-based or functional assay
Test [1] has as its target HIV-1 Env of pseudovirus BJOX009000.02.4 (clade CRF01_AE) (HIV-1).
Test [2] deals with HIV-1 Env of pseudovirus T251-18 (clade CRF02_AG) (HIV-1).
In test [3] the target is HIV-1 Env of pseudovirus T255-34 (clade CRF02_AG) (HIV-1).
For test [4], the target named is HIV-1 Env of pseudovirus X1193_c1 (clade G) (HIV-1).
Test [5] concerns the target HIV-1 Env of pseudovirus X2088_c9 (clade G) (HIV-1).
Test [6] concerns the target HIV-1 Env pseudovirus 231965.c01 (HIV-1).
Test [7] has as its target HIV-1 Env pseudovirus 235-47 (HIV-1).
For test [8], the target named is HIV-1 Env pseudovirus 263-8 (HIV-1).
Test [9] deals with HIV-1 Env pseudovirus 6041.v3.c23 (HIV-1).
The target in test [10] is HIV-1 Env pseudovirus C2101.c01 (HIV-1).
Test [11] concerns the target HIV-1 Env pseudovirus P0402_c2_11 (HIV-1).
Test [12] concerns the target HIV-1 Env pseudovirus T255-34 (HIV-1).
In test [13] the target is HIV-1 Env pseudovirus T278-50 (HIV-1).
The target in test [14] is HIV-1 Env pseudovirus X1254_c3 (HIV-1).

As to 10-1074 (antibody), the IC50, titer in TZM.bl cells was greater than 50 µg/mL in test [1]; 1.08 µg/mL in test [2]; greater than 50 µg/mL in test [3]; 0.083 µg/mL in [4]; 0.003 µg/mL in [5]. Also, the IC80, titer in TZM.bl cells in test [1] is greater than 50 µg/mL; in test [2] it was 7.39 µg/mL; in [3] it was greater than 50 µg/mL; in test [4] it was 0.475 µg/mL; in test [5], 0.014 µg/mL.
Turning to 10E8 (antibody), the IC50, titer in TZM.bl cells in test [1] is 1.57 µg/mL; in [2], 2.36 µg/mL; in [3], 0.778 µg/mL; in test [4] it was 0.497 µg/mL; in test [5], greater than 10 µg/mL. Further, the IC80, titer in TZM.bl cells in [1] is 9.95 µg/mL; in test [2], greater than 10 µg/mL; in test [3], 4.21 µg/mL; in [4], 4.2 µg/mL; in test [5], greater than 10 µg/mL.
As usually defined, the IC50 is the concentration at which inhibition is half-maximal. By IC80 is commonly meant the concentration at which the effect reaches the 80% level. With N49P9.1 (antibody), the IC50 amounted to 0.474 µg/mL in test [6]; 0.045 µg/mL in [7]; 0.049 µg/mL in test [8]; 0.282 µg/mL in test [9]; 0.085 µg/mL in test [10]; 0.06 µg/mL in [11]. The IC50 in [12] was 0.092 µg/mL; in test [13] it was greater than 50 µg/mL; in test [14] it was 0.101 µg/mL. Further, the IC80 amounted to 2.24 µg/mL in test [6]; 0.352 µg/mL in test [7]; 0.17 µg/mL in test [8]; 6.78 µg/mL in test [9]; 0.227 µg/mL in [10]; 0.163 µg/mL in [11]. The IC80 is 0.286 µg/mL in test [12], greater than 50 µg/mL in test [13] and 0.278 µg/mL in [14]. Besides, the MPI in [6] was 100; in [7] it was 98; in [8] it was 100; in [9], 90; in [10], 100; in test [11], 100. Besides, the MPI in test [12] is 100; in [13] it was 5; in test [14] it was 100.
N49P19 (antibody): the IC50 is greater than 50 µg/mL in [6]; 0.44 µg/mL in test [7]; 0.344 µg/mL in test [8]; greater than 50 µg/mL in [9]; 0.978 µg/mL in test [10]; 0.448 µg/mL in [11]. Also, the IC50 is 0.948 µg/mL in test [12], greater than 50 µg/mL in test [13] and greater than 50 µg/mL in test [14]. The IC80 was greater than 50 µg/mL in test [6]; 3.23 µg/mL in test [7]; 1.51 µg/mL in test [8]; greater than 50 µg/mL in test [9]; 4.19 µg/mL in test [10]; 2.63 µg/mL in test [11]. Besides, the results for the IC80 in test [12], in test [13] and in test [14] were 6.22 µg/mL, greater than 50 µg/mL and greater than 50 µg/mL, respectively. The MPI came out at 22 in [6]; 89 in [7]; 99 in test [8]; 32 in test [9]; 100 in test [10]; 100 in test [11]. Moreover, the results for the MPI in test [12], in [13] and in test [14] were 97, 35 and 48, respectively.
As to PG9 (antibody), the IC50, titer in TZM.bl cells in [1] is 1.73 µg/mL; in [2] it was greater than 50 µg/mL; in test [3], 0.023 µg/mL; in test [4], 0.105 µg/mL; in test [5], greater than 50 µg/mL. Further, the IC80, titer in TZM.bl cells in [1] is 8.21 µg/mL; in [2], greater than 50 µg/mL; in [3], 0.134 µg/mL; in test [4] it was 0.304 µg/mL; in test [5], greater than 50 µg/mL.
Consider PG16 (antibody), for which the IC50, titer in TZM.bl cells is 1.19 µg/mL in [1]; 1.72 µg/mL in test [2]; 0.024 µg/mL in test [3]; 0.018 µg/mL in test [4]; greater than 50 µg/mL in [5]. The IC80, titer in TZM.bl cells in test [1] is 22.1 µg/mL; in test [2], 44.7 µg/mL; in test [3], 0.125 µg/mL; in [4], 0.11 µg/mL; in test [5] it was greater than 50 µg/mL.
